# PMC3137634, “Concurrent Proinflammatory and Apoptotic Activity of a Helicobacter pylori Protein (HP986) Points to Its Role in Chronic Persistence” (PLoS ONE, 2011)
# T1: recombinant HP986 (Helicobacter pylori, UniProt O25636 1-237)
# T1 construct: HP986 (HP0986), protein of unknown function from the plasticity zone of Helicobacter pylori; PCR product spanning 711 bp cloned at XhoI/HindIII of pRSETA; about 29 kDa; 711 bp would be 237 codons with the stop or without; also called rHP986; HP0986; source: E. coli BL21 (DE3), purified (Ni2+-NTA, size exclusion chromatography)
# T1 sequence: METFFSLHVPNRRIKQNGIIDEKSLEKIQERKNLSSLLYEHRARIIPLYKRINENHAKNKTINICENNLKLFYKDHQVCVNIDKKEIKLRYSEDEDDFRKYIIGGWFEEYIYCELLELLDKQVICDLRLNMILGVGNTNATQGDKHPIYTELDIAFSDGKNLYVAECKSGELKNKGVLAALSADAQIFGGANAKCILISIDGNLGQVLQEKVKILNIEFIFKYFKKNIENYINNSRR
# Target: T1, recombinant HP986
# Experiment: SPR; BIAcore 3000; human TNFR1/Fc amine-coupled to a CM5 chip up to 150 RU; rHP986 at 100, 400, 800 and 1200 nM in PBS, 30 µl/min; 1:1 Langmuir model
# Conditions: both partners purified
binder,measurement,value
"Human TNFR1/Fc (Fc fusion, UniProt P19438 30-211, looked up, soluble human TNFR1 (tumor necrosis factor receptor 1) fused to Fc; Commercial TNFR1/Fc chimeras usually hold the extracellular domain joined to human IgG1 Fc at the C-terminus; also called soluble humanTNFR1; hu TNFR1; source: bought: Sigma, USA) LVPHLGDREKRDSVCPQGKYIHPQNNSICCTKCHKGTYLYNDCPGPGQDTDCRECESGSFTASENHLRHCLSCSKCRKEMGQVEISSCTVDRDTVCGCRKNQYRHYWSENLFQCFNCSLCLNGTVHLSCQEKQNTVCTCHAGFFLRENECVSCSNCKKSLECTKLCLPQIENVKGTEDSGTT",koff,0.000908 s⁻¹
same,kon,12600 M⁻¹ s⁻¹
